From the supplement of paper PMC12764529
± gives the half width of the 95% confidence interval.

What was measured:
[1] = folding stability dG unfold from chymotrypsin proteolysis; higher = more stable
Method in brief: (§1)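 Designed mini-proteins (under 80 residues, no cysteine) in a PA-tagged cDNA display construct were digested with trypsin and chymotrypsin. Each protease was used at 11 concentrations (threefold dilutions) plus a no-protease condition, followed by sequencing. K50 was inferred by Bayesian fitting of sequencing counts, and unfolding free energy was derived against a sequence-predicted unfolded-state K50 and a shared folded-state K50, per protease or combined. Only designs with AlphaFold2 dimer inter-PAE above 15 were kept.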

[2] = folding stability dG unfold (combined trypsin and chymotrypsin); higher = more stable
Method in brief: as §1

[3] = folding stability dG unfold from trypsin proteolysis; higher = more stable
Method in brief: as §1

Sequence: SAGGSAGGMVKVYPIDPNTPPEAVVARLEKEFPDRPIKSVSVSTVGDVPVVTITFPDGLKVVVSSAGGSAGG [r6_492_JUSTAS]
- folding stability dG unfold [1]: 1.43 ± 0.03 kcal/mol
- folding stability dG unfold [2]: 1.23 ± 0.072 kcal/mol
- folding stability dG unfold [3]: 0.975 ± 0.029 kcal/mol

Sequence: SAGGSAGGMVTITEVSYDPKIGKTFTLVTVKDPEGKETLVEVPLEEIEKLIEEVPEGRPVEIAPSAGGSAGG [r6_113_JUSTAS]
- folding stability dG unfold [1]: -0.983 ± 0.64 kcal/mol
- folding stability dG unfold [2]: -0.199 ± 0.19 kcal/mol
- folding stability dG unfold [3]: -0.0621 ± 0.054 kcal/mol

Sequence: SAGGSAGGMVTSTDPATGIVYSLDPTTGVWSAQTVTLPPITIPVSEVPELLKALPPGTPILVLASAGGSAGG [r6_104_JUSTAS]
- folding stability dG unfold [1]: 1.16 ± 0.064 kcal/mol
- folding stability dG unfold [2]: 1.14 ± 0.037 kcal/mol
- folding stability dG unfold [3]: 1.01 ± 0.016 kcal/mol

Sequence: SAGGSAGGMVVGILTITDPATGSSETLVIPMPSEEEAVERAKELAEELEAKKGKIVKVEIRPRPSAGGSAGG [r6_787_JUSTAS]
- folding stability dG unfold [1]: 1.5 ± 0.088 kcal/mol
- folding stability dG unfold [2]: 1.32 ± 0.19 kcal/mol
- folding stability dG unfold [3]: 1.39 ± 0.064 kcal/mol

Sequence: SAGGSAGGMVYKIRDKETGKVYEVTIDEETNEITVYDVKTGKPVKTVNMTIEELKEAGYEVEPVSAGGSAGG [r6_831_TrROS_Hall]
- folding stability dG unfold [1]: 3.27 ± 0.034 kcal/mol
- folding stability dG unfold [2]: 3.4 ± 0.2 kcal/mol
- folding stability dG unfold [3]: 3.61 ± 0.16 kcal/mol

Sequence: SAGGSAGGMYTVIEEEFTFPPSNPDVVIEVEYPDLPDSYTITQSTFPEGDTYHVRVTITVPPNLSAGGSAGG [r6_482_JUSTAS]
- folding stability dG unfold [1]: 0.762 ± 0.1 kcal/mol
- folding stability dG unfold [2]: 0.605 ± 0.076 kcal/mol
- folding stability dG unfold [3]: 0.314 ± 0.089 kcal/mol

Sequence: SAGGSAGGMYVKIKVTMTADELKKLFPNIKKGEKVTVELVIKVEKAPPVKVEKKKEKKVEVKLKSAGGSAGG [r6_211_TrROS_Hall]
- folding stability dG unfold [1]: 2.21 ± 0.041 kcal/mol
- folding stability dG unfold [2]: 1.74 ± 0.14 kcal/mol
- folding stability dG unfold [3]: 0.661 ± 0.062 kcal/mol

Sequence: SAGGSAGGNTIMIPLPPNMPLDEVAKELMDAFPDYPIKDVEYERYGDRPMVTVRFPDGWKITIWSAGGSAGG [r6_492_TrROS]
- folding stability dG unfold [1]: 0.818 ± 0.22 kcal/mol
- folding stability dG unfold [2]: 0.838 ± 0.12 kcal/mol
- folding stability dG unfold [3]: 0.543 ± 0.034 kcal/mol

Sequence: SAGGSAGGNVILVETGPDGRARVLVFDPETGKVTEYEVPADDLDAIEAIAADKVDLVIVRPVGPSAGGSAGG [r6_639_TrMRF]
- folding stability dG unfold [1]: 2.23 ± 0.028 kcal/mol
- folding stability dG unfold [2]: 2.07 ± 0.11 kcal/mol
- folding stability dG unfold [3]: 1.75 ± 0.059 kcal/mol

Sequence: SAGGSAGGNWKVEIWPNGEQQEYTIDEIKKQLKNDIPPNYMIRVKGSGKWIPVRELLKEAGIPLSAGGSAGG [r6_937_TrROS]
- folding stability dG unfold [1]: 0.793 ± 0.11 kcal/mol
- folding stability dG unfold [2]: 0.691 ± 0.076 kcal/mol
- folding stability dG unfold [3]: 0.382 ± 0.077 kcal/mol

Sequence: SAGGSAGGPEIEVRFPDGWYVKITVERPEDGKVTVKVEVYHPDPNGKPIPPETAKNLAKEFLNKSAGGSAGG [r6_235_TrROS]
- folding stability dG unfold [1]: 0.294 ± 0.12 kcal/mol
- folding stability dG unfold [2]: 0.67 ± 0.11 kcal/mol
- folding stability dG unfold [3]: 0.945 ± 0.075 kcal/mol

Sequence: SAGGSAGGPIKDSKGKFIVTFEFPNGLKKKFEVENIKNPEIEFNFNGKKVKTKIIEIKKGDESKSAGGSAGG [r6_575_TrMRF]
- folding stability dG unfold [1]: -0.004 ± 0.21 kcal/mol
- folding stability dG unfold [2]: 0.0149 ± 0.12 kcal/mol
- folding stability dG unfold [3]: -0.117 ± 0.12 kcal/mol

Sequence: SAGGSAGGPIVIKVKSLEEAKELVEKLAKELTPENVKVEIKEVFEPENSYYVVIEIKTASPEEESAGGSAGG [r6_72_TrMRF]
- folding stability dG unfold [1]: 2.51 ± 0.097 kcal/mol
- folding stability dG unfold [2]: 2.65 ± 0.22 kcal/mol
- folding stability dG unfold [3]: 2.85 ± 0.14 kcal/mol

Sequence: SAGGSAGGPIVLKFPSPEDLEKAIEIATAHGYEIELNPESGTLVINATGPMLEEFKKIPGLEISSAGGSAGG [r6_724_TrMRF]
- folding stability dG unfold [1]: 2.66 ± 0.041 kcal/mol
- folding stability dG unfold [2]: 2.72 ± 0.092 kcal/mol
- folding stability dG unfold [3]: 2.73 ± 0.12 kcal/mol

Sequence: SAGGSAGGPKEKKWYVMVHITWRDDGKERPRHFMFKSPEQVIEALEEQLPPDNIEIDVAVFPYKSAGGSAGG [r6_114_TrROS]
- folding stability dG unfold [1]: 2.95 ± 0.053 kcal/mol
- folding stability dG unfold [2]: 2.33 ± 0.086 kcal/mol
- folding stability dG unfold [3]: 1.63 ± 0.034 kcal/mol

Sequence: SAGGSAGGPKHVEIVITPDLRKEIEENQKEGDPPTLMEIAKEIAREFRANGMPVDIKILPPEDFSAGGSAGG [r6_815_TrROS]
- folding stability dG unfold [1]: 0.29 ± 0.31 kcal/mol
- folding stability dG unfold [2]: 0.452 ± 0.23 kcal/mol
- folding stability dG unfold [3]: 0.216 ± 0.07 kcal/mol

Sequence: SAGGSAGGPLKVELVKAEILPGNKIIRVYRAELPTETYLAVIELHLNPDGEILSAKIKVYPLPESAGGSAGG [r6_19_TrMRF]
- folding stability dG unfold [1]: 3.06 ± 0.052 kcal/mol
- folding stability dG unfold [2]: 3.06 ± 0.14 kcal/mol
- folding stability dG unfold [3]: 2.85 ± 0.14 kcal/mol

Sequence: SAGGSAGGPLPLEELRRLLESRPDYEILSVEDESPDYVVVTVRFPFPLPSDEERTLRLRLRFPLSAGGSAGG [r6_152_TrMRF]
- folding stability dG unfold [1]: 3.374 ± 0.031 kcal/mol
- folding stability dG unfold [2]: 3.08 ± 0.094 kcal/mol
- folding stability dG unfold [3]: 2.23 ± 0.056 kcal/mol

Sequence: SAGGSAGGPLVVGRGTFPDGFTADAELRVPDSSETFYRTIEPGASLDEIPENYEVANITLSPAGSAGGSAGG [r6_758_TrMRF]
- folding stability dG unfold [1]: -0.176 ± 0.13 kcal/mol
- folding stability dG unfold [2]: -0.162 ± 0.13 kcal/mol
- folding stability dG unfold [3]: -0.289 ± 0.12 kcal/mol

Sequence: SAGGSAGGPNIEIMSMFKHPNGTIVIFIRTPEGRYIVIKIPPPGNIKIVGVYPLPPGDPLLERLSAGGSAGG [r6_715_TrROS]
- folding stability dG unfold [1]: 3.14 ± 0.12 kcal/mol
- folding stability dG unfold [2]: 3.06 ± 0.2 kcal/mol
- folding stability dG unfold [3]: 2.43 ± 0.17 kcal/mol

Sequence: SAGGSAGGPNWVKFPIMFEMPIPVVPKMEKDPDGENRMEPVKPVRISIMIELTLPPDDLEDLIKSAGGSAGG [r6_120_TrROS]
- folding stability dG unfold [1]: 2.28 ± 0.11 kcal/mol
- folding stability dG unfold [2]: 1.83 ± 0.18 kcal/mol
- folding stability dG unfold [3]: 1.41 ± 0.083 kcal/mol

Sequence: SAGGSAGGPPPAKVVEVREVTLEDLENLDKLLVVFPDGKVYTSPEALRKWLEEGKPVLVAVFEGSAGGSAGG [r6_827_TrMRF]
- folding stability dG unfold [1]: 1.96 ± 0.049 kcal/mol
- folding stability dG unfold [2]: 1.88 ± 0.15 kcal/mol
- folding stability dG unfold [3]: 1.6 ± 0.084 kcal/mol

Sequence: SAGGSAGGPPPYYMVEIEIERRNPKNGKKQKFPVTVIMPPKEAEKIKDELEEWGYEIKVDVHPISAGGSAGG [r6_97_TrROS]
- folding stability dG unfold [1]: 0.393 ± 0.066 kcal/mol
- folding stability dG unfold [2]: 0.74 ± 0.18 kcal/mol
- folding stability dG unfold [3]: 0.856 ± 0.15 kcal/mol

Sequence: SAGGSAGGPVVISVPALVKLAKELGLKLVFFPETKTVILEHPDSFLIATIDSKGNVSIAPALPESAGGSAGG [r6_155_TrMRF]
- folding stability dG unfold [1]: 2.59 ± 0.049 kcal/mol
- folding stability dG unfold [2]: 2.64 ± 0.091 kcal/mol
- folding stability dG unfold [3]: 2.69 ± 0.09 kcal/mol

Sequence: SAGGSAGGPYYIMVDIEMYNPQDGKERNFTLMIPVPPGDLPKIKEELLSAGFPIKIKNISIMPPSAGGSAGG [r6_151_TrROS]
- folding stability dG unfold [1]: 2.88 ± 0.062 kcal/mol
- folding stability dG unfold [2]: 2.74 ± 0.18 kcal/mol
- folding stability dG unfold [3]: 2.62 ± 0.14 kcal/mol

Sequence: SAGGSAGGRIPLEDIEIVEVSEETLPNTEKVYHVLVKLPEGYIEATFLPNTGLEEAVERLLALESAGGSAGG [r6_232_TrMRF]
- folding stability dG unfold [1]: 0.493 ± 0.097 kcal/mol
- folding stability dG unfold [2]: 0.788 ± 0.067 kcal/mol
- folding stability dG unfold [3]: 0.963 ± 0.053 kcal/mol

Sequence: SAGGSAGGRLEPITEEEALELARLLAEYIRRLFPGDPRPHLVVVPILVPTPEDGYRLFLAVIAESAGGSAGG [r6_844_TrMRF]
- folding stability dG unfold [1]: 4.1 ± 0.039 kcal/mol
- folding stability dG unfold [2]: 3.73 ± 0.067 kcal/mol
- folding stability dG unfold [3]: 2.74 ± 0.079 kcal/mol

Sequence: SAGGSAGGRLLLVKITLPDGEEITIVLEFESEEEARAAAEALLPPGAKVEVRELSEEELEALLKSAGGSAGG [r6_267_TrROS_Hall]
- folding stability dG unfold [1]: 3.37 ± 0.044 kcal/mol
- folding stability dG unfold [2]: 3.31 ± 0.052 kcal/mol
- folding stability dG unfold [3]: 3.09 ± 0.049 kcal/mol

Sequence: SAGGSAGGRVRIHYNPEDGYIMITFPRNNPEEIAKEILEAFNIKDVNIQVDPEEGWVSIMIKIDSAGGSAGG [r6_662_TrROS]
- folding stability dG unfold [1]: 1.26 ± 0.1 kcal/mol
- folding stability dG unfold [2]: 2.17 ± 0.41 kcal/mol
- folding stability dG unfold [3]: 2.95 ± 0.25 kcal/mol

Sequence: SAGGSAGGSAAEASVVTFPGDLTAEVTKLPDGSYAVTVTFPENPGATATLTRTPDSVTVTPSAGGSAGGSAG [r3_170_JUSTAS]
- folding stability dG unfold [1]: -1.1 ± 0.56 kcal/mol
- folding stability dG unfold [2]: -0.342 ± 0.17 kcal/mol
- folding stability dG unfold [3]: 0.0476 ± 0.058 kcal/mol

Sequence: SAGGSAGGSAAKIELEDGTLRITLTRTVRDPATGETHTETLTLEIKLPPAPPPVVVVSPEDLSAGGSAGGSA [r18_501_TrROS_Hall]
- folding stability dG unfold [1]: 3.24 ± 0.037 kcal/mol
- folding stability dG unfold [2]: 2.88 ± 0.092 kcal/mol
- folding stability dG unfold [3]: 2.32 ± 0.072 kcal/mol

Sequence: SAGGSAGGSAAPDEKLKITVELVDPNNGKRIEEKEYPNMTIEEVKKEAEEKGLKIVKIEVSSAGGSAGGSAG [r3_423_JUSTAS]
- folding stability dG unfold [1]: -0.116 ± 0.061 kcal/mol
- folding stability dG unfold [2]: -0.173 ± 0.29 kcal/mol
- folding stability dG unfold [3]: -0.382 ± 0.083 kcal/mol

Sequence: SAGGSAGGSAAPLYELEILSVDLDPDNPTVYVLARIPGTSNYVLITFPPNGDVYAYASPLPSAGGSAGGSAG [r3_294_TrMRF]
- folding stability dG unfold [1]: 2.37 ± 0.06 kcal/mol
- folding stability dG unfold [2]: 2.25 ± 0.17 kcal/mol
- folding stability dG unfold [3]: 1.95 ± 0.06 kcal/mol

Sequence: SAGGSAGGSAAVPVSETPLGTLPDGRRVRLRRYRDPDGNLYTFLEVEPLPRPLSPADLEKAAASAGGSAGGS [r12_775_TrMRF]
- folding stability dG unfold [1]: 2.06 ± 0.12 kcal/mol
- folding stability dG unfold [2]: 1.68 ± 0.1 kcal/mol
- folding stability dG unfold [3]: 0.492 ± 0.19 kcal/mol

Sequence: SAGGSAGGSADEIPIMIKIKYKNGGKKREHTITFRVEPNMPNLDEFAKELANNGRIEEVEISAGGSAGGSAG [r3_30_TrROS]
- folding stability dG unfold [1]: -0.282 ± 0.59 kcal/mol
- folding stability dG unfold [2]: 0.28 ± 0.25 kcal/mol
- folding stability dG unfold [3]: 0.629 ± 0.14 kcal/mol

Sequence: SAGGSAGGSADEPETTTTTTTTTTTKKPAPPAPPKTITLDVEVNGKTLRLTFTSKEALDALSAGGSAGGSAG [r3_426_TrROS_Hall]
- folding stability dG unfold [1]: 0.945 ± 0.1 kcal/mol
- folding stability dG unfold [2]: 1.03 ± 0.15 kcal/mol
- folding stability dG unfold [3]: 0.931 ± 0.021 kcal/mol
